For the assay, the target named is T1, GP73-hFc (human GP73 amino acids 63 to 400 fused at the C-terminus to human IgG1 Fc) (human).
T1 construct: Expressed in HEK293F, CHO or HepG2 cells; the host is named under assay; also called HEK expressed GP73-hFc; CHO expressed GP73-hFc
T1 chain: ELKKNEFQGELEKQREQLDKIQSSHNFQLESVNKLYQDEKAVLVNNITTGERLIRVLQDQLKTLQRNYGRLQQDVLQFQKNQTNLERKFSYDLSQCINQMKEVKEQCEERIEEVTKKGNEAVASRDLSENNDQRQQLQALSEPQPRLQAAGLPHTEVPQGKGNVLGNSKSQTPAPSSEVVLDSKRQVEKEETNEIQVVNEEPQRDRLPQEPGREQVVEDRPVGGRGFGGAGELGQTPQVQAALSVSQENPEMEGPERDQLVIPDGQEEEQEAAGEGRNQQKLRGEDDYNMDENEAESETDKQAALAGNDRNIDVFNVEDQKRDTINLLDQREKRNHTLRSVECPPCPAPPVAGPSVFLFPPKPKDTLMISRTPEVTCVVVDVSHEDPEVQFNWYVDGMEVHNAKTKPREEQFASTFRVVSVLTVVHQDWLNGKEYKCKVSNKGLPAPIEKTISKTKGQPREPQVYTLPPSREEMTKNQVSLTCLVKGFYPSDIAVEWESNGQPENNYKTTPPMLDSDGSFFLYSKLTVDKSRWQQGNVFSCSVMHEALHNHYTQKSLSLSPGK
As to the kind of experiment: SPR Biacore 2000, mAb captured on rabbit anti-mouse IgG, HEK GP73-hFc analyte 0.412-100 nM, 1:1 fit; standard error 2 × 10^-5, larger than the value; dissociation hardly resolved. As to the method: First, an approximately 13,000-15,000 RU rabbit anti-mouse IgG Capture Biosensor was created by amine-coupling rabbit anti-mouse IgG antibody (GE Healthcare) to a CM5 biosensor chip (GE Healthcare) via EDC/NHS/ethanolamine chemistry provided in an Amine Coupling Kit (GE Healthcare) after pre-treating the biosensor with duplicate injections of 100 mM HCl, 50 mM NaOH, and 0.1% SDS. Purified GP73 antibody and antigen (HEK GP73-hFc) were diluted into a running buffer (hereinafter “running buffer”) composed of HBS-EP buffer (GE Healthcare) supplemented with 0.1% BSA and 0.1% CM-Dextran. Each GP73 antibody was diluted to 1 μg/mL. The GP73-hFc antigen was diluted to concentrations of 0.412 to 100 nM using a 3-fold dilution series assuming an oligomeric molecular weight of 490 kDa (Abbott Laboratories).
The GP73-hFc antigen program was as follows. After equilibrating the rabbit anti-mouse IgG Capture Biosensor for 3 min at 5 μL/minute with running buffer, GP73 antibody (7-14 μL) was injected over individual flow cells with one flow cell being left blank as a reference flow cell. […] The binding kinetics (association and dissociation) were monitored via sensorgrams during antigen injection and running buffer re-equilibration. […] Standard errors of determined values are reported in parentheses with respect to the smallest number place value.

B1: anti-GP73 monoclonal antibody 1B-4971 (antibody, V domains shown)
VH: QVQLQQSGPALVKPGASVKMSCKASGYTFTNYVIHWVKQKPGQGLERIGYIWPYNDGTKFNEKFKGKATLTSDKSSSTAYMELSSLTSEDSAVYYCSSQQLAYWGQGTTLTVSS
VL: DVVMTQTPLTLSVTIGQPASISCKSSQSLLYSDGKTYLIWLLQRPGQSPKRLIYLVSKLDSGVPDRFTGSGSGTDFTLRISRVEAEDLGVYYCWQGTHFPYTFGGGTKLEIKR
notes: Biotin labelled in some assays; also called mAb 1B-4971; 1B-4971-Bt
The molecule B1 displayed a koff of at most 1e-05 s⁻¹.

Source of the values: US20140271651A1 (AbbVie / Abbott, published 2014).
